The assay addresses T1, recombinant human MDM2 (human, UniProt Q00987 1-491).
T1 construct: E3 ubiquitin-protein ligase MDM2, human; source: bought: Biotechne (E3-204-050)
Kind of assay: pull-down; purified recombinant proteins (15 ng), alone or together, on beads coupled to the pDIQ peptide; uncoupled beads as control; western blot. The note with it: both partners purified.

T1 sequence (Q00987 whole entry): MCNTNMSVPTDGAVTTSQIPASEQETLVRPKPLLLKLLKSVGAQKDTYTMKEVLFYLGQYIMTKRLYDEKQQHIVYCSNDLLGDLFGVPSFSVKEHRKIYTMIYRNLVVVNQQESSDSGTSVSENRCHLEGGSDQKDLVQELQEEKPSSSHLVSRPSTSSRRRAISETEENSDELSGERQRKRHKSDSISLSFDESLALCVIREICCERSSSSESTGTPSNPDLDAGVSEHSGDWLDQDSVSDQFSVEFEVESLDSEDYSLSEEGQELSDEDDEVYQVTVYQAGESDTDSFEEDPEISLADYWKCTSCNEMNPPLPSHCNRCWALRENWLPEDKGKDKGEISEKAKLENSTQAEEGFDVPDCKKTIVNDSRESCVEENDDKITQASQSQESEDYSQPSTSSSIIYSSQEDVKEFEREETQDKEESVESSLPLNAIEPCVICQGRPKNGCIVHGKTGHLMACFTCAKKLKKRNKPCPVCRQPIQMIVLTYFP

B1: pDIQ peptide (peptide)
peptide: ETFEHWWSQLLSGGC
On to B1, for which the binding result is recorded as “binds”.

The values above are taken from paper PMC10290082, “Tau protein binds to the P53 E3 ubiquitin ligase MDM2” (Scientific Reports, 2023).
